In US20240400715A1 (VIBRANT PHARMA, published 2024):
Values joined by “and” are separate entries in the source; they are usually repeats but may differ in a detail not shown here. Equal values may be shown once.

Tests used:
[1] = target: T1, human CD3 on Jurkat cells (human, UniProt P07766 23-207; P04234 22-171; P09693 23-182); test: FACS, Jurkat cells;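 further: flow cytometric binding of bispecific antibodies to Jurkat T cells, threefold serial dilutions incubated half an hour in the cold, EC50 taken from the fitted binding curve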
T1 construct: whole, on cells; CD3 complex as on Jurkat (Clone E6-1) cells; also called CD3 expressing cells (Jurkat)
Procedure: The binding of the bispecific antibodies was tested on the CA expressing human lung adenocarcinoma cell line (H1573) and the CD3 expressing immortalized T lymphocyte line (Jurkat). The steps are as follows: the cells were harvested, counted, and resuspended in FACS buffer (PBS containing 0.1% BSA) at 2×10⁶ cells/ml. 100 μl of cell suspension was incubated in a V-bottom 96-well plate at 4° C. with 3-fold serial dilutions of bispecific antibodies (20 μg/ml-0.009 μg/ml) for 30 minutes; washed twice with pre-cooled FACS buffer. […] GraphPadPrism was used to obtain the binding curve.

[2] = target: T2, human CD3ε/δ (ACRO systems, CDD-H52W1) (human, UniProt P07766 23-126; P04234 22-105); test: BLI, antibody captured, antigen in solution;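 further: bispecific antibodies captured on AHIC biosensors to a 1.5 nm loading signal, in PBST with 0.02% detergent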
T2 construct: Bought protein; also called human CD3ϵ/CD3δ; human CD3 epsilon/delta antigen
Procedure: The bispecific antibodies were diluted to 5 ag/ml, and 1.5 nm protein was coupled to the surface of the AHIC sensor chip through 0.02% PBST.

Row | EC50 [1] | Kd [2] [nM] | koff [2] [s⁻¹] | kon [2] [M⁻¹ s⁻¹] | Binder
1 | 0.312 µg/mL and 2.4 nM | 2.59 | 0.00046 | 178000 | CEA-Fab-Knob-+Hole (201) (bispecific antibody, human IgG4 S228P, kappa, F234A L235A, VHH linked to the CL of the Fab; human IgG4 knob-into-hole Fc) heavy: EVKLLESGGGLVQPKGSLKLSCAASGFTFNTYAMNWVRQAPGKGLEWVARIRSKYNNYATYYADSVKDRFTISRDDSQSILYLQMNNLKTEDTAMYYCVRHGNFGNSYVSWFAYWGQGTLVTVSSASTKGPSVFPLAPCSRSTSESTAALGCLVKDYFPEPVTVSWNSGALTSGVHTFPAVLQSSGLYSLSSVVTVPSSSLGTKTYTCNVDHKPSNTKVDKRVESKYGPPCPPCPAPEAAGGPSVFLFPPKPKDTLMISRTPEVTCVVVDVSQEDPEVQFNWYVDGVEVHNAKTKPREEQFNSTYRVVSVLTVLHQDWLNGKEYKCKVSNKGLPSSIEKTISKAKGQPREPQVYTLPPCQEEMTKNQVSLWCLVKGFYPSDIAVEWESNGQPENNYKTTPPVLDSDGSFFLYSRLTVDKSRWQEGNVFSCSVMHEALHNHYTQKSLSLSL ESKYGPPCPPCPAPEAAGGPSVFLFPPKPKDTLMISRTPEVTCVVVDVSQEDPEVQFNWYVDGVEVHNAKTKPREEQFNSTYRVVSVLTVLHQDWLNGKEYKCKVSNKGLPSSIEKTISKAKGQPREPQVCTLPPSQEEMTKNQVSLSCAVKGFYPSDIAVEWESNGQPENNYKTTPPVLDSDGSFFLVSRLTVDKSRWQEGNVFSCSVMHEALHNRFTQKSLSLSL light: QAVVTQESALTTSPGETVTLTCRSSTGAVTTSNYANWVQEKPDHLFTGLIGGTNKRAPGVPARFSGSLIGDKAALTITGAQTEDEAIYFCALWYSNLWVFGGGTKVEIKRTVAAPSVFIFPPSDEQLKSGTASVVCLLNNFYPREAKVQWKVDNALQSGNSQESVTEQDSKDSTYSLSSTLTLSKADYEKHKVYACEVTHQGLSSPVTKSFNRGECGGGGSGGGGSEVQLVESGGGFVQAGESLTLSCTSSTLTFTPYRMAWYRQAPGKQRDLVADISSGDGRTTNYADFAKGRFTISRDNIKNTVFLRMTNLKPEDTAVYYCNTFVSFVGIARSWGQGTQVTVSS
2 | 0.592 µg/mL and 4.55 nM | 0.984 | 0.000327 | 333000 | Fab-Knob-CEA+Hole (102) (bispecific antibody, human IgG4 S228P, kappa, F234A L235A, Anti-CD3 TA1 Fab + anti-CEA VHH C17 on human IgG4 knob-into-hole Fc) heavy: EVKLLESGGGLVQPKGSLKLSCAASGFTFNTYAMNWVRQAPGKGLEWVARIRSKYNNYATYYADSVKDRFTISRDDSQSILYLQMNNLKTEDTAMYYCVRHGNFGNSYVSWFAYWGQGTLVTVSSASTKGPSVFPLAPCSRSTSESTAALGCLVKDYFPEPVTVSWNSGALTSGVHTFPAVLQSSGLYSLSSVVTVPSSSLGTKTYTCNVDHKPSNTKVDKRVESKYGPPCPPCPAPEAAGGPSVFLFPPKPKDTLMISRTPEVTCVVVDVSQEDPEVQFNWYVDGVEVHNAKTKPREEQFNSTYRVVSVLTVLHQDWLNGKEYKCKVSNKGLPSSIEKTISKAKGQPREPQVYTLPPCQEEMTKNQVSLWCLVKGFYPSDIAVEWESNGQPENNYKTTPPVLDSDGSFFLYSRLTVDKSRWQEGNVFSCSVMHEALHNHYTQKSLSLSLGGGGSGGGGSEVQLVESGGGFVQAGESLTLSCTSSTLTFTPYRMAWYRQAPGKQRDLVADISSGDGRTTNYADFAKGRFTISRDNIKNTVFLRMTNLKPEDTAVYYCNTFVSFVGIARSWGQGTQVTVSS ESKYGPPCPPCPAPEAAGGPSVFLFPPKPKDTLMISRTPEVTCVVVDVSQEDPEVQFNWYVDGVEVHNAKTKPREEQFNSTYRVVSVLTVLHQDWLNGKEYKCKVSNKGLPSSIEKTISKAKGQPREPQVCTLPPSQEEMTKNQVSLSCAVKGFYPSDIAVEWESNGQPENNYKTTPPVLDSDGSFFLVSRLTVDKSRWQEGNVFSCSVMHEALHNRFTQKSLSLSL light: QAVVTQESALTTSPGETVTLTCRSSTGAVTTSNYANWVQEKPDHLFTGLIGGTNKRAPGVPARFSGSLIGDKAALTITGAQTEDEAIYFCALWYSNLWVFGGGTKVEIKRTVAAPSVFIFPPSDEQLKSGTASVVCLLNNFYPREAKVQWKVDNALQSGNSQESVTEQDSKDSTYSLSSTLTLSKADYEKHKVYACEVTHQGLSSPVTKSFNRGEC
3 | 0.292 µg/mL and 2.25 nM | 3.9 | 0.000866 | 222000 | Knob+CEA-Fab-Hole (202) (bispecific antibody, human IgG4 S228P, kappa, F234A L235A, VHH linked to the CL of the Fab; human IgG4 knob-into-hole Fc) ESKYGPPCPPCPAPEAAGGPSVFLFPPKPKDTLMISRTPEVTCVVVDVSQEDPEVQFNWYVDGVEVHNAKTKPREEQFNSTYRVVSVLTVLHQDWLNGKEYKCKVSNKGLPSSIEKTISKAKGQPREPQVYTLPPCQEEMTKNQVSLWCLVKGFYPSDIAVEWESNGQPENNYKTTPPVLDSDGSFFLYSRLTVDKSRWQEGNVFSCSVMHEALHNHYTQKSLSLSL heavy: EVKLLESGGGLVQPKGSLKLSCAASGFTFNTYAMNWVRQAPGKGLEWVARIRSKYNNYATYYADSVKDRFTISRDDSQSILYLQMNNLKTEDTAMYYCVRHGNFGNSYVSWFAYWGQGTLVTVSSASTKGPSVFPLAPCSRSTSESTAALGCLVKDYFPEPVTVSWNSGALTSGVHTFPAVLQSSGLYSLSSVVTVPSSSLGTKTYTCNVDHKPSNTKVDKRVESKYGPPCPPCPAPEAAGGPSVFLFPPKPKDTLMISRTPEVTCVVVDVSQEDPEVQFNWYVDGVEVHNAKTKPREEQFNSTYRVVSVLTVLHQDWLNGKEYKCKVSNKGLPSSIEKTISKAKGQPREPQVCTLPPSQEEMTKNQVSLSCAVKGFYPSDIAVEWESNGQPENNYKTTPPVLDSDGSFFLVSRLTVDKSRWQEGNVFSCSVMHEALHNRFTQKSLSLSL light: QAVVTQESALTTSPGETVTLTCRSSTGAVTTSNYANWVQEKPDHLFTGLIGGTNKRAPGVPARFSGSLIGDKAALTITGAQTEDEAIYFCALWYSNLWVFGGGTKVEIKRTVAAPSVFIFPPSDEQLKSGTASVVCLLNNFYPREAKVQWKVDNALQSGNSQESVTEQDSKDSTYSLSSTLTLSKADYEKHKVYACEVTHQGLSSPVTKSFNRGECGGGGSGGGGSEVQLVESGGGFVQAGESLTLSCTSSTLTFTPYRMAWYRQAPGKQRDLVADISSGDGRTTNYADFAKGRFTISRDNIKNTVFLRMTNLKPEDTAVYYCNTFVSFVGIARSWGQGTQVTVSS
4 | 1.4 µg/mL and 10.8 nM | 3.63 | 0.000879 | 246000 | 302 (TA3), configuration of FIG. 1W (bispecific antibody, IgG4, chains put together from VH/VL, CH1, knob-Fc; IgG4, kappa; also called CEA-CD3 bispecific antibody 302; not shown: kappa light chain constant domain (CL)) heavy: EVQLVESGGGLVQPGGSLRLSCAASGYSFTGYTMNWVRQAPGKGLEWVALINPYKGVSTYNQKFKDRFTISVDKSKNTAYLQMNSLRAEDTAVYYCARSGYYGDSDWYFDVWGQGTLVTVSSASTKGPSVFPLAPCSRSTSESTAALGCLVKDYFPEPVTVSWNSGALTSGVHTFPAVLQSSGLYSLSSVVTVPSSSLGTKTYTCNVDHKPSNTKVDKRVESKYGPPCPPCPAPEAAGGPSVFLFPPKPKDTLMISRTPEVTCVVVDVSQEDPEVQFNWYVDGVEVHNAKTKPREEQFNSTYRVVSVLTVLHQDWLNGKEYKCKVSNKGLPSSIEKTISKAKGQPREPQVYTLPPCQEEMTKNQVSLWCLVKGFYPSDIAVEWESNGQPENNYKTTPPVLDSDGSFFLYSRLTVDKSRWQEGNVFSCSVMHEALHNHYTQKSLSLSL EVQLVESGGGFVQAGESLTLSCTSSTLTFTPYRMAWYRQAPGKQRDLVADISSGDGRTTNYADFAKGRFTISRDNIKNTVFLRMTNLKPEDTAVYYCNTFVSFVGIARSWGQGTQVTVSSESKYGPPCPPCPAPEAAGGPSVFLFPPKPKDTLMISRTPEVTCVVVDVSQEDPEVQFNWYVDGVEVHNAKTKPREEQFNSTYRVVSVLTVLHQDWLNGKEYKCKVSNKGLPSSIEKTISKAKGQPREPQVCTLPPSQEEMTKNQVSLSCAVKGFYPSDIAVEWESNGQPENNYKTTPPVLDSDGSFFLVSRLTVDKSRWQEGNVFSCSVMHEALHNRFTQKSLSLSL light: DIQMTQSPSSLSASVGDRVTITCRASQDIRNYLNWYQQKPGKAPKLLIYYTSRLESGVPSRFSGSGSGTDYTLTISSLQPEDFATYYCQQGNTLPWTFGQGTKVEIK
5 | 0.848 µg/mL and 6.52 nM | 0.662 | 0.000233 | 352000 | Fab-Knob+Hole-CEA (103) (bispecific antibody, human IgG4 S228P, kappa, F234A L235A, Anti-CD3 TA1 Fab + anti-CEA VHH C17 on human IgG4 knob-into-hole Fc) heavy: EVKLLESGGGLVQPKGSLKLSCAASGFTFNTYAMNWVRQAPGKGLEWVARIRSKYNNYATYYADSVKDRFTISRDDSQSILYLQMNNLKTEDTAMYYCVRHGNFGNSYVSWFAYWGQGTLVTVSSASTKGPSVFPLAPCSRSTSESTAALGCLVKDYFPEPVTVSWNSGALTSGVHTFPAVLQSSGLYSLSSVVTVPSSSLGTKTYTCNVDHKPSNTKVDKRVESKYGPPCPPCPAPEAAGGPSVFLFPPKPKDTLMISRTPEVTCVVVDVSQEDPEVQFNWYVDGVEVHNAKTKPREEQFNSTYRVVSVLTVLHQDWLNGKEYKCKVSNKGLPSSIEKTISKAKGQPREPQVYTLPPCQEEMTKNQVSLWCLVKGFYPSDIAVEWESNGQPENNYKTTPPVLDSDGSFFLYSRLTVDKSRWQEGNVFSCSVMHEALHNHYTQKSLSLSL ESKYGPPCPPCPAPEAAGGPSVFLFPPKPKDTLMISRTPEVTCVVVDVSQEDPEVQFNWYVDGVEVHNAKTKPREEQFNSTYRVVSVLTVLHQDWLNGKEYKCKVSNKGLPSSIEKTISKAKGQPREPQVCTLPPSQEEMTKNQVSLSCAVKGFYPSDIAVEWESNGQPENNYKTTPPVLDSDGSFFLVSRLTVDKSRWQEGNVFSCSVMHEALHNRFTQKSLSLSLGGGGSGGGGSEVQLVESGGGFVQAGESLTLSCTSSTLTFTPYRMAWYRQAPGKQRDLVADISSGDGRTTNYADFAKGRFTISRDNIKNTVFLRMTNLKPEDTAVYYCNTFVSFVGIARSWGQGTQVTVSS light: QAVVTQESALTTSPGETVTLTCRSSTGAVTTSNYANWVQEKPDHLFTGLIGGTNKRAPGVPARFSGSLIGDKAALTITGAQTEDEAIYFCALWYSNLWVFGGGTKVEIKRTVAAPSVFIFPPSDEQLKSGTASVVCLLNNFYPREAKVQWKVDNALQSGNSQESVTEQDSKDSTYSLSSTLTLSKADYEKHKVYACEVTHQGLSSPVTKSFNRGEC
